Reference: patent US20210347889A1 (Merck Sharp & Dohme, published 2021)

Molecular target: T1, membrane LAG3 (membrane-bound LAG3 expressed on immune cells) (human, UniProt P18627 23-525)
T1 sequence: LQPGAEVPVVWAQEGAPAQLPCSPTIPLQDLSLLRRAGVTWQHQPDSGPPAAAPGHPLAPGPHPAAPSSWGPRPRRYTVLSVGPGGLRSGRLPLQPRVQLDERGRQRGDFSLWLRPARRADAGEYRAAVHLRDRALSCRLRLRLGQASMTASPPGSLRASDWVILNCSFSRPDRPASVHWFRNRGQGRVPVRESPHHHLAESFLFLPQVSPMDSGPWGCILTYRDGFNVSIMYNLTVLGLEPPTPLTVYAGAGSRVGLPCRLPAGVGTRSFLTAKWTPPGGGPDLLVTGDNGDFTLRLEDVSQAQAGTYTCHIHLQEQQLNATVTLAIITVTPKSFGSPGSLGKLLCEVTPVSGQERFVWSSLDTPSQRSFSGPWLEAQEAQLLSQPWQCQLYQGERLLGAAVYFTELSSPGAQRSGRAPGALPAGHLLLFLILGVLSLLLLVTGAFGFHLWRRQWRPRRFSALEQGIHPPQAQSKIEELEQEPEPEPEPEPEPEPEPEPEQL
Test: statement in Example 2 (rationale for sLAG3 as target engagement marker); no assay described

binding result: binds
B1: anti-LAG3 antibody Ab6 (antibody, human IgG4 S228P, kappa, V domains shown)
VH: QMQLVQSGPEVKKPGTSVKVSCKASGYTFTDYNVDWVRQARGQRLEWIGDINPNDGGTIYAQKFQERVTITVDKSTSTAYMELSSLRSEDTAVYYCARNYRWFGAMDHWGQGTTVTVSS
VL: DIVMTQTPLSLSVTPGQPASISCKASQSLDYEGDSDMNWYLQKPGQPPQLLIYGASNLESGVPDRFSGSGSGTDFTLKISRVEAEDVGVYYCQQSTEDPRTFGGGTKVEIKR
notes: The claims say two heavy and two light chains
